Experimental data: the supplement of paper PMC5998384

What was measured:
HeLa Kyoto [1] = assay: solubility in G1/S (NP-40 vs SDS abundance) (log2 ratio); higher = more soluble; conditions: cell cycle stage: G1/S
HeLa Kyoto [2] = assay: melting temperature (median over replicates), in situ; higher = more thermally stable
HeLa Kyoto [3] = assay: solubility change mitosis vs G1/S (difference of NP-40 vs SDS log2 ratios) (log2 ratio difference); higher = more soluble in mitosis
HeLa Kyoto [4] = assay: thermal stability score vs G1/S (z-score of summed log2 fold changes over temperatures); higher = more thermally stable than in G1/S
[5] = cell cycle stage: early G1 (4.5 h after nocodazole release)
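Wherever melting temperature (median over replicates), in situ is given: HeLa Kyoto cells synchronized by double thymidine or nocodazole block, proteins quantified by TMT10plex mass spectrometry, three independent biological replicates.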
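Wherever solubility change mitosis vs G1/S (difference of NP-40 vs SDS log2 ratios) is given: synchronized HeLa Kyoto cells (double thymidine block for G1/S, nocodazole release for mitosis), protein amounts in NP-40 versus SDS lysates quantified by mass spectrometry, three biological replicates.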
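Wherever solubility in G1/S (NP-40 vs SDS abundance) is given: HeLa Kyoto cells arrested at G1/S by double thymidine block, proteins quantified by TMT10plex mass spectrometry in mild NP-40 versus SDS extracts, three biological replicates.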
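Wherever thermal stability score vs G1/S (z-score of summed log2 fold changes over temperatures) is given: synchronized HeLa Kyoto cells, proteins quantified by TMT10plex mass spectrometry, three biological replicates, mitosis taken 0.5 h after nocodazole release, G1/S directly after double thymidine block.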

Sequence	solubility in G1/S (log2) (HeLa Kyoto [1])	melting temperature (HeLa Kyoto [2]; cell cycle stage: G1/S) [°C]	melting temperature (HeLa Kyoto [2]; cell cycle stage: mitosis) [°C]	solubility change mitosis (log2) (HeLa Kyoto [3])	thermal stability score (HeLa Kyoto [4]; [5])	thermal stability score (HeLa Kyoto [4]; cell cycle stage: mitosis)
MATEIGSPPRFFHMPRFQHQAPRQLFYKRPDFAQQQAMQQLTFDGKRMRKAVNRKTIDYNPSVIKYLENRIWQRDQRDMRAIQPDAGYYNDLVPPIGMLNNPMNAVTTKFVRTSTNKVKCPVFVVRWTPEGRRLVTGASSGEFTLWNGLTFNFETILQAHDSPVRAMTWSHNDMWMLTADHGGYVKYWQSNMNNVKMFQAHKEAIREASFSPTDNKFATCSDDGTVRIWDFLRCHEERILRGHGADVKCVDWHPTKGLVVSGSKDSQQPIKFWDPKTGQSLATLHAHKNTVMEVKLNLNGNWLLTASRDHLCKLFDIRNLKEELQVFRGHKKEATAVAWHPVHEGLFASGGSDGSLLFWHVGVEKEVGGMEMAHEGMIWSLAWHPLGHILCSGSNDHTSKFWTRNRPGDKMRDRYNLNLLPGMSEDGVEYDDLEPNSLAVIPGMGIPEQLKLAMEQEQMGKDESNEIEMTIPGLDWGMEEVMQKDQKKVPQKKVPYAKPIPAQFQQAWMQNKVPIPAPNEVLNDRKEDIKLEEKKKTQAEIEQEMATLQYTNPQLLEQLKIERLAQKQVEQIQPPPSSGTPLLGPQPFPGQGPMSQIPQGFQQPHPSQQMPMNMAQMGPPGPQGQFRPPGPQGQMGPQGPPLHQGGGGPQGFMGPQGPQGPPQGLPRPQDMHGPQGMQRHPGPHGPLGPQGPPGPQGSSGPQGHMGPQGPPGPQGHIGPQGPPGPQGHLGPQGPPGTQGMQGPPGPRGMQGPPHPHGIQGGPGSQGIQGPVSQGPLMGLNPRGMQGPPGPRENQGPAPQGMIMGHPPQEMRGPHPPGGLLGHGPQEMRGPQEIRGMQGPPPQGSMLGPPQELRGPPGSQSQQGPPQGSLGPPPQGGMQGPPGPQGQQNPARGPHPSQGPIPFQQQKTPLLGDGPRAPFNQEGQSTGPPPLIPGLGQQGAQGRIPPLNPGQGPGPNKGDSRGPPNHHMGPMSERRHEQSGGPEHGPERGPFRGGQDCRGPPDRRGPHPDFPDDFSRPDDFHPDKRFGHRLREFEGRGGPLPQEEKWRRGGPGPPFPPDHREFSEGDGRGAARGPPGAWEGRRPGDERFPRDPEDPRFRGRREESFRRGAPPRHEGRAPPRGRDGFPGPEDFGPEENFDASEEAARGRDLRGRGRGTPRGGRKGLLPTPDEFPRFEGGRKPDSWDGNREPGPGHEHFRDTPRPDHPPHDGHSPASRERSSSLQGMDMASLPPRKRPWHDGPGTSEHREMEAPGGPSEDRGGKGRGGPGPAQRVPKSGRSSSLDGEHHDGYHRDEPFGGPPGSGTPSRGGRSGSNWGRGSNMNSGPPRRGASRGGGRGR [WDR33]	-0.421	49.3	49.8	0.257	0.933	1.06
MEQVEILRKFIQRVQAMKSPDHNGEDNFARDFMRLRRLSTKYRTEKIYPTATGEKEENVKKNRYKDILPFDHSRVKLTLKTPSQDSDYINANFIKGVYGPKAYVATQGPLANTVIDFWRMIWEYNVVIIVMACREFEMGRKKCERYWPLYGEDPITFAPFKISCEDEQARTDYFIRTLLLEFQNESRRLYQFHYVNWPDHDVPSSFDSILDMISLMRKYQEHEDVPICIHCSAGCGRTGAICAIDYTWNLLKAGKIPEEFNVFNLIQEMRTQRHSAVQTKEQYELVHRAIAQLFEKQLQLYEIHGAQKIADGVNEINTENMVSSIEPEKQDSPPPKPPRTRSCLVEGDAKEEILQPPEPHPVPPILTPSPPSAFPTVTTVWQDNDRYHPKPVLHMVSSEQHSADLNRNYSKSTELPGKNESTIEQIDKKLERNLSFEIKKVPLQEGPKSFDGNTLLNRGHAIKIKSASPCIADKISKPQELSSDLNVGDTSQNSCVDCSVTQSNKVSVTPPEESQNSDTPPRPDRLPLDEKGHVTWSFHGPENAIPIPDLSEGNSSDINYQTRKTVSLTPSPTTQVETPDLVDHDNTSPLFRTPLSFTNPLHSDDSDSDERNSDGAVTQNKTNISTASATVSAATSTESISTRKVLPMSIARHNIAGTTHSGAEKDVDVSEDSPPPLPERTPESFVLASEHNTPVRSEWSELQSQERSEQKKSEGLITSENEKCDHPAGGIHYEMCIECPPTFSDKREQISENPTEATDIGFGNRCGKPKGPRDPPSEWT [PTPN12]	0.143	49.4	49.8	-0.242	-0.24	0.678
MTEQAISFAKDFLAGGIAAAISKTAVAPIERVKLLLQVQHASKQIAADKQYKGIVDCIVRIPKEQGVLSFWRGNLANVIRYFPTQALNFAFKDKYKQIFLGGVDKHTQFWRYFAGNLASGGAAGATSLCFVYPLDFARTRLAADVGKSGTEREFRGLGDCLVKITKSDGIRGLYQGFSVSVQGIIIYRAAYFGVYDTAKGMLPDPKNTHIVVSWMIAQTVTAVAGVVSYPFDTVRRRMMMQSGRKGADIMYTGTVDCWRKIFRDEGGKAFFKGAWSNVLRGMGGAFVLVLYDELKKVI [SLC25A6]	-0.157	57.1	57.4	0.0142	-0.865	-3.48
MDRSGFGEISSPVIREAEVTRTARKQSAQKRVLLQASQDENFGNTTPRNQVIPRTPSSFRQPFTPTSRSLLRQPDISCILGTGGKSPRLTQSSGFFGNLSMVTNLDDSNWAAAFSSQRSGLFTNTEPHSITEDVTISAVMLREDDPGEAASMSMFSDFLQSFLKHSSSTVFDLVEEYENICGSQVNILSKIVSRATPGLQKFSKTASMLWLLQQEMVTWRLLASLYRDRIQSALEEESVFAVTAVNASEKTVVEALFQRDSLVRQSQLVVDWLESIAKDEIGEFSDNIEFYAKSVYWENTLHTLKQRQLTSYVGSVRPLVTELDPDAPIRQKMPLDDLDREDEVRLLKYLFTLIRAGMTEEAQRLCKRCGQAWRAATLEGWKLYHDPNVNGGTELEPVEGNPYRRIWKISCWRMAEDELFNRYERAIYAALSGNLKQLLPVCDTWEDTVWAYFRVMVDSLVEQEIQTSVATLDETEELPREYLGANWTLEKVFEELQATDKKRVLEENQEHYHIVQKFLILGDIDGLMDEFSKWLSKSRNNLPGHLLRFMTHLILFFRTLGLQTKEEVSIEVLKTYIQLLIREKHTNLIAFYTCHLPQDLAVAQYALFLESVTEFEQRHHCLELAKEADLDVATITKTVVENIRKKDNGEFSHHDLAPALDTGTTEEDRLKIDVIDWLVFDPAQRAEALKQGNAIMRKFLASKKHEAAKEVFVKIPQDSIAEIYNQCEEQGMESPLPAEDDNAIREHLCIRAYLEAHETFNEWFKHMNSVPQKPALIPQPTFTEKVAHEHKEKKYEMDFGIWKGHLDALTADVKEKMYNVLLFVDGGWMVDVREDAKEDHERTHQMVLLRKLCLPMLCFLLHTILHSTGQYQECLQLADMVSSERHKLYLVFSKEELRKLLQKLRESSLMLLDQGLDPLGYEIQL [NUP107]	-0.526	51.1	49.3	0.428	-2.75	-3.13
MGSVLGLCSMASWIPCLCGSAPCLLCRCCPSGNNSTVTRLIYALFLLVGVCVACVMLIPGMEEQLNKIPGFCENEKGVVPCNILVGYKAVYRLCFGLAMFYLLLSLLMIKVKSSSDPRAAVHNGFWFFKFAAAIAIIIGAFFIPEGTFTTVWFYVGMAGAFCFILIQLVLLIDFAHSWNESWVEKMEEGNSRCWYAALLSATALNYLLSLVAIVLFFVYYTHPASCSENKAFISVNMLLCVGASVMSILPKIQESQPRSGLLQSSVITVYTMYLTWSAMTNEPETNCNPSLLSIIGYNTTSTVPKEGQSVQWWHAQGIIGLILFLLCVFYSSIRTSNNSQVNKLTLTSDESTLIEDGGARSDGSLEDGDDVHRAVDNERDGVTYSYSFFHFMLFLASLYIMMTLTNWYRYEPSREMKSQWTAVWVKISSSWIGIVLYVWTLVAPLVLTNRDFD [SERINC1]	-0.167	56.2	60.6	-0.141	-4.14	-5.22
MSTAQSLKSVDYEVFGRVQGVCFRMYTEDEARKIGVVGWVKNTSKGTVTGQVQGPEDKVNSMKSWLSKVGSPSSRIDRTNFSNEKTISKLEYSNFSIRY [ACYP2]	0.215	53.7	53.4	-0.0326	-0.285	-1.11
MKSSVAQIKPSSGHDRRENLNSYQRNSSPEDRYEEQERSPRDRDYFDYSRSDYEHSRRGRSYDSSMESRNRDREKRRERERDTDRKRSRKSPSPGRRNPETSVTQSSSAQDEPATKKKKDELDPLLTRTGGAYIPPAKLRMMQEQITDKNSLAYQRMSWEALKKSINGLINKVNISNISIIIQELLQENIVRGRGLLSRSVLQAQSASPIFTHVYAALVAIINSKFPQIGELILKRLILNFRKGYRRNDKQLCLTASKFVAHLINQNVAHEVLCLEMLTLLLERPTDDSVEVAIGFLKECGLKLTQVSPRGINAIFERLRNILHESEIDKRVQYMIEVMFAVRKDGFKDHPIILEGLDLVEEDDQFTHMLPLEDDYNPEDVLNVFKMDPNFMENEEKYKAIKKEILDEGDTDSNTDQDAGSSEEDEEEEEEEGEEDEEGQKVTIHDKTEINLVSFRRTIYLAIQSSLDFEECAHKLLKMEFPESQTKELCNMILDCCAQQRTYEKFFGLLAGRFCMLKKEYMESFEGIFKEQYDTIHRLETNKLRNVAKMFAHLLYTDSLPWSVLECIKLSEETTTSSSRIFVKIFFQELCEYMGLPKLNARLKDETLQPFFEGLLPRDNPRNTRFAINFFTSIGLGGLTDELREHLKNTPKVIVAQKPDVEQNKSSPSSSSSASSSSESDSSDSDSDSSDSSSESSSEESDSSSISSHSSASANDVRKKGHGKTRSKEVDKLIRNQQTNDRKQKERRQEHGHQETRTERERRSEKHRDQNSSGSNWRDPITKYTSDKDVPSERNNYSRVANDRDQEMHIDLENKHGDPKKKRGERRNSFSENEKHTHRIKDSENFRRKDRSKSKEMNRKHSGSRSDEDRYQNGAERRWEKSSRYSEQSRESKKNQDRRREKSPAKQK [CWC22]	-0.707	46.1	49.3	0.227	1.24	2.43
MVLWILWRPFGFSGRFLKLESHSITESKSLIPVAWTSLTQMLLEAPGIFLLGQRKRFSTMPETETHERETELFSPPSDVRGMTKLDRTAFKKTVNIPVLKVRKEIVSKLMRSLKRAALQRPGIRRVIEDPEDKESRLIMLDPYKIFTHDSFEKAELSVLEQLNVSPQISKYNLELTYEHFKSEEILRAVLPEGQDVTSGFSRIGHIAHLNLRDHQLPFKHLIGQVMIDKNPGITSAVNKINNIDNMYRNFQMEVLSGEQNMMTKVRENNYTYEFDFSKVYWNPRLSTEHSRITELLKPGDVLFDVFAGVGPFAIPVAKKNCTVFANDLNPESHKWLLYNCKLNKVDQKVKVFNLDGKDFLQGPVKEELMQLLGLSKERKPSVHVVMNLPAKAIEFLSAFKWLLDGQPCSSEFLPIVHCYSFSKDANPAEDVRQRAGAVLGISLEACSSVHLVRNVAPNKEMLCITFQIPASVLYKNQTRNPENHEDPPLKRQRTAEAFSDEKTQIVSNT [TRMT5]	0.289	57.7	56.1	-0.0856	-0.613	-0.00215
MSLSNKLTLDKLDVKGKRVVMRVDFNVPMKNNQITNNQRIKAAVPSIKFCLDNGAKSVVLMSHLGRPDGVPMPDKYSLEPVAVELKSLLGKDVLFLKDCVGPEVEKACANPAAGSVILLENLRFHVEEEGKGKDASGNKVKAEPAKIEAFRASLSKLGDVYVNDAFGTAHRAHSSMVGVNLPQKAGGFLMKKELNYFAKALESPERPFLAILGGAKVADKIQLINNMLDKVNEMIIGGGMAFTFLKVLNNMEIGTSLFDEEGAKIVKDLMSKAEKNGVKITLPVDFVTADKFDENAKTGQATVASGIPAGWMGLDCGPESSKKYAEAVTRAKQIVWNGPVGVFEWEAFARGTKALMDEVVKATSRGCITIIGGGDTATCCAKWNTEDKVSHVSTGGGASLELLEGKVLPGVDALSNI [PGK1]	0.376	53.8	53.9	-0.0583	1.07	0.993
